Experimental data as given in the supplement of paper PMC10567573.
± gives the standard deviation.

Test: protein stability index of a GFP-peptide fusion (GPS, HEK-293T) (PSI 1-6); higher = more stable
[1] = treatment: DMSO, c terminus: a fixed tail appended
[2] = treatment: MLN4924 1 uM, 8 h, c terminus: a fixed tail appended
[3] = treatment: DMSO, c terminus: native
[4] = treatment: MLN4924 1 uM, 8 h, c terminus: native
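Further: 24-mer peptide tiles fused after GFP, lentivirally expressed, FACS-sorted into six equal bins by GFP/DsRed ratio, decoded by Illumina sequencing, PSI is the read-weighted mean bin number.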

| Sequence | protein stability index [1] | protein stability index [2] | protein stability index [3] | protein stability index [4] |
| --- | --- | --- | --- | --- |
| FRFTYYTILDIFRFALRFIRPDPR [FAF2] | 2.56 ± 0.067 | 2.47 ± 0.33 |  |  |
| GRESYIPGICVARVYHGWLFEGLG [SLA] |  | 1.8 ± 0.88 |  |  |
| SHFVFVIEVKTKGGSKYLIYRRYR [NCF4] | 2.81 ± 0.56 | 2.48 ± 0.33 |  |  |
| GREKPGPLDFEAYSAAALQEAMKR [FCHO1] | 4.21 ± 0.27 | 4.26 ± 0.18 |  |  |
| EMHTSRDHSSQSEEEVVEGEKEVE [BNIP3L] | 5.682 ± 0.045 | 5.59 ± 0.16 |  |  |
| LEVADFLIKAGADIELGCSTPLME [ANKRD17] | 2.89 ± 0.56 | 2.82 ± 0.22 |  |  |
| FLSLHRAHLGEEAHKCLECGKCFS [ZNF263] | 3.06 ± 0.28 | 3.44 ± 0.37 |  |  |
| QAFCCENDINILRVSNPGRLAELL [GADD45A] | 2.74 ± 0.36 | 2.82 ± 0.34 |  |  |
| REAKEGDCGDILRLIRELAEFEKL [SAT2] | 2.95 ± 0.3 | 3.09 ± 0.47 |  |  |
| RETNKSRGFAFVTFESPADAKDAA [RBMX] | 4.34 ± 0.32 | 4.39 ± 0.38 |  |  |
| AIVDLISRQYDKFLTHFILMNDVI [FBXO33] | 3.1 ± 0.45 | 3.36 ± 0.28 |  |  |
| SLPPPAGLNSSWVELPMNSSNGND [BNIP3L] | 4.94 ± 0.26 | 4.88 ± 0.29 |  |  |
| NKALSIILHLICLLEKVPCTLEQD [FEM1C] | 2.87 ± 0.25 | 3.13 ± 0.71 |  |  |
| LLSCLSKSNNRLKSLSIQYLELDR [FBXO39] | 2.54 ± 0.37 | 2.01 ± 0.33 |  |  |
| REPYYARPEPELETFSPPLPAGPG [CPXM2] | 4.7 ± 0.26 | 4.47 ± 0.38 |  |  |
| MADSGLREPQEDSQKDLENDPSVN [TOR1AIP2] | 5.65 ± 0.19 | 5.57 ± 0.21 |  |  |
| ELERCRQQAGLLVTGEKEEPSRSA [PPEF2] | 4.95 ± 0.27 | 5.11 ± 0.86 |  |  |
| SDVDQLYLIIRTLGKLIPRHQSIF [CDKL4] | 3 ± 1.2 | 2.67 ± 0.77 |  |  |
| DPTNWLRCYYYEDTISTIKSVAWE [NCF4] | 2.12 ± 0.47 | 2.47 ± 0.13 |  |  |
| VAEETPDGAPALCPSPEALSPEPP [PRKX] | 5.48 ± 0.21 | 5.41 ± 0.31 |  |  |
| YPVGWPPVQELPPSLRAPPPGGWP [ZMAT5] | 2.39 ± 0.88 | 2.83 ± 0.69 |  |  |
| EQEHAAIQDKLFQVAKREREAATK [CHCHD6] | 5.38 ± 0.36 | 5.48 ± 0.16 |  |  |
| KKHEFLTSVLDALSTDMVHAASDP [SMOC2] | 3.33 ± 0.24 | 3.46 ± 0.18 |  |  |

| Sequence | protein stability index [1] | protein stability index [2] | protein stability index [3] | protein stability index [4] |
| --- | --- | --- | --- | --- |
| QTRRASALIDRPAPYFERSSSKRY [EPB41L3] | 4.18 ± 0.24 | 4.17 ± 0.3 |  |  |
| LGDCMRTLGYMPTEMELLEVSQHI [CABP4] | 2.46 ± 0.31 | 2.57 ± 0.23 |  |  |
| RGLGLGGRRLKSPQAPDPEEEENR [FANCE] | 5.11 ± 0.23 | 5.58 ± 0.38 |  |  |
| AQPNTMLGRMFGSGREHNFTRPNE [BTBD10] | 3.74 ± 0.53 | 3.61 ± 0.39 |  |  |
| QTGDPTSPIKLSPTSPVYRGSSSG [MTUS2] | 4.76 ± 0.26 | 4.82 ± 0.2 |  |  |
| GGDGSGCSKQSGSFRKFRYGYNNV [ADAMTS4] | 3.59 ± 0.3 | 3.389 ± 0.008 |  |  |
| NISCFFRLVDRDSVWGYDLGLRSL [MYORG] | 3.01 ± 0.41 | 2.95 ± 0.7 |  |  |
| APTPPSLSQRVMCNDLFKVNPFQL [TIAF1] | 2.11 ± 0.25 | 2.25 ± 0.28 |  |  |
| VAPQDQCKLTCQAQALGYYYVLEP [ADAMTS4] | 2.58 ± 0.22 | 2.4 ± 0.04 |  |  |
| EGYQALYHAVVEPMLWNPSGTPKR [C22orf31] | 2.39 ± 0.28 | 2.79 ± 0.61 |  |  |
| TCVNLLLEASNYQMMPYMQPVMQS [KLHL13] | 3.06 ± 0.41 | 2.98 ± 0.36 |  |  |
| KDLSNTFAKLEKLTILAKRKSLFD [STX5] | 2.45 ± 0.16 | 2.51 ± 0.32 |  |  |
| FVLGKGRGAAAAGGPQRIPAHRFV [BTBD1] | 2.3 ± 0.25 | 2.71 ± 0.31 |  |  |
| LFEAGDATLASDLQDWASVGAFL [FOXJ1] |  |  | 3.59 ± 0.15 | 3.49 ± 0.34 |
| YSFVLTNRGNSAGGLQHRVTAKTA [PTPRD] | 2.81 ± 0.29 | 2.97 ± 0.28 |  |  |
| SNEFKESALTLACYKGHLEMVRFL [ANKRD17] | 2.21 ± 0.18 | 2.4 ± 0.34 |  |  |
| KAQQEFAAGVFSNPAVRTAAANAA [SCAMP3] | 4.13 ± 0.11 | 4.11 ± 0.24 |  |  |
| MEEGERSPLLSQETAGQKPLSVHR [TSPAN10] | 5.08 ± 0.11 | 5.02 ± 0.18 |  |  |
| RNLGSINTELQDVQRIMVANIEEV [SEC22B] | 4.1 ± 0.15 | 4.05 ± 0.044 |  |  |
| LQNNCTSSITRQKKRLQELALALK [TMEM120A] | 2.79 ± 0.15 | 2.83 ± 0.4 |  |  |
| MASLLEDLSHIEGLSQAPQPLADE [SERTAD1] | 4.82 ± 0.092 | 4.72 ± 0.1 |  |  |
| PQLVSSAREGSSEPWLPLTDGRSP [PLEKHN1] | 4.83 ± 0.25 | 4.58 ± 0.085 |  |  |
| TRVLAEMREQYEAMAERNRRDAEE [KRT13] | 5.26 ± 0.2 | 5.18 ± 0.28 |  |  |

| Sequence | protein stability index [1] | protein stability index [2] | protein stability index [3] | protein stability index [4] |
| --- | --- | --- | --- | --- |
| SLLGLLSFPRNNISYLVLSMISMG [JAGN1] | 3.11 ± 0.33 | 3.01 ± 0.71 |  |  |
| HAQVVEELSNFKSQKVLGLNEDPL [ZBED1] | 4.34 ± 0.28 | 4.44 ± 0.32 |  |  |
| IYVIGGYDGRSRLSSVECLDYTAD [KLHL12] | 2.86 ± 0.46 | 2.63 ± 0.41 |  |  |
| PNHLGGGAVVLGAESHASKDVAID [STX5] | 5.1 ± 0.37 | 5.15 ± 0.17 |  |  |
| KTCNPPDAGPMVVHCSAGVGRTGC [PTPRD] | 3.5 ± 0.32 | 3.5 ± 0.34 |  |  |
| VFPETAFIAVTSYQNHKITQLKIE [TBX5] | 2.22 ± 0.35 | 2.21 ± 0.32 |  |  |
| RSQMQGPRTRARLGANEVLLVVGG [KLHL12] | 2.39 ± 0.39 | 2.62 ± 0.37 |  |  |
| TRQLHEKTSQLSYYYMGFYIHSCP [ATE1] | 2.83 ± 0.71 | 2.54 ± 0.41 |  |  |
| YILLVGYPPFWDEDQHKLYQQIKA [CAMK2B] | 2.49 ± 0.57 | 2.82 ± 0.56 |  |  |
| VRKVPPGYSIKVFDFERSGLQHAP [SMAD6] | 2.31 ± 0.33 | 2.63 ± 0.035 |  |  |
| YLDETCTCFVRDGKTYCKRDYVRL [ISL2] | 2.68 ± 0.084 | 2.95 ± 0.3 |  |  |
| TEKTTTVLSESSGPSNTSHSSSRD [C2CD2L] | 5.42 ± 0.15 | 5.31 ± 0.25 |  |  |
| MPEEVHHGEEEVETFAFQAEIAQL [HSP90AB1] | 5.24 ± 0.28 | 5.16 ± 0.14 |  |  |
| DRIATTDDTTAMASASSSATGSFS [MAGEA10] | 5.2 ± 0.11 | 5.28 ± 0.09 |  |  |
| IRKGESRSEALAVDGAGKPGAEEA [CHGA] | 5.48 ± 0.12 | 5.43 ± 0.31 |  |  |
| SKAQELGGAGREDPGLWSRLCRLA [ZSWIM9] | 2.96 ± 0.13 | 3.38 ± 0.33 |  |  |
| VNIMRTYTYEKLLWTTSRVLKVLS [CTNNB1] | 2.18 ± 0.14 | 2.41 ± 0.67 |  |  |
| GGHSRERADEPQWSLYPSDSQVSE [CHGB] | 5.28 ± 0.27 | 5.24 ± 0.34 |  |  |
| RYSSDTTPLLNGSSQDRMFETMAI [GOSR1] | 3.29 ± 0.77 | 3.27 ± 0.24 |  |  |
| EEVPEAYVDIHTGLSGSGVAFVCA [PYCR3] | 2.76 ± 0.53 | 2.66 ± 0.43 |  |  |
| AIMCVSCICWSPFLVTMANIGING [PTGFR] | 3.42 ± 0.095 | 3.71 ± 0.45 |  |  |
| SDVVEYAKEKLESFIKNSDSFDKF [PCMTD1] | 3.7 ± 0.17 | 4.16 ± 0.38 |  |  |
| SIAFRLRLASFDSSGKLICSRTTG [GMCL1] | 2.52 ± 0.4 | 2.09 ± 0.34 |  |  |

| Sequence | protein stability index [1] | protein stability index [2] | protein stability index [3] | protein stability index [4] |
| --- | --- | --- | --- | --- |
| EDVLLLNFEEMRALLDSLPPPVES [KLHL14] | 3.34 ± 0.24 | 3.57 ± 0.41 |  |  |
| IKYFRVDFYEAMDDYTSAIEVQPN [TTC32] | 2.48 ± 0.51 | 2.1 ± 0.46 |  |  |
| AAWKGRVLLPETQKRQQLSEDTLT [C22orf31] | 3.83 ± 0.31 | 3.84 ± 0.38 |  |  |
| EPNRLETGEAGEELDLRLRLAQPS [RTN2] | 5.17 ± 0.13 | 5.28 ± 0.17 |  |  |
| SALPTGSPKRGTAPGDLSATEPAT [FBF1] | 5.32 ± 0.36 | 5.32 ± 0.086 |  |  |
| FDNPQVRFFLGDLCSRQDLYPALK [NSDHL] | 2.35 ± 0.29 | 2.25 ± 0.26 |  |  |
| EEGSANRRPEDQELESLSAIEAEL [CHGA] | 5.59 ± 0.14 | 5.45 ± 0.095 |  |  |
| FKNRLVNIMPYESTRVCLQPIRGV [PTPRD] | 2.35 ± 0.35 | 2.33 ± 0.47 |  |  |
| VKGMQRIVNQWSEKFSDEGDSDSA [DLC1] | 4.68 ± 0.21 | 5.09 ± 0.29 |  |  |
| DEALERCQILELLNAELEEKMMQE [CCDC89] | 5.17 ± 0.41 | 5.34 ± 0.22 |  |  |
| GEYVVTAKAEGFTASTKNCMVGYD [CPXM2] | 4.26 ± 0.28 | 3.65 ± 0.054 |  |  |
| VCVFLSHGEGNHIYAYDAKIEIQT [CASP6] | 3.11 ± 0.26 | 2.75 ± 0.64 |  |  |
| TDRSHIYTFTDTFTEKLWPLFYPG [TRIM39] | 2.16 ± 0.47 | 2.15 ± 0.56 |  |  |
| RGAPRGGGRGGSRSDRGGGRSRY [RBMX] |  |  | 5.34 ± 0.14 | 5.33 ± 0.11 |
| NLLLQPTTNPHTSASHRPCVNGDV [SMG5] | 3.48 ± 0.23 | 3.54 ± 0.43 |  |  |
| FDKLALRFHGRLLFLKDVLGDEIC [KCTD13] | 2.48 ± 0.41 | 2.34 ± 0.18 |  |  |
| PPPPPPPPAELKAEPGFEPADCKR [CEBPB] | 5.52 ± 0.16 | 5.4 ± 0.28 |  |  |
| NSSQLLLRRHAGLLDGLARRVGIL [SCARA5] | 2.72 ± 0.027 | 2.69 ± 0.28 |  |  |
| VRAAQLCSQHWGGMASFRFPETTF [TBX6] | 2.48 ± 0.59 | 2.1 ± 0.34 |  |  |
| LGPVPREDQAEAWGCSCCPPETKH [TSPAN10] | 4.91 ± 0.083 | 4.97 ± 0.32 |  |  |
